Assay results reported in the supplement of paper PMC9233669.
Variants at the floor of the assay were thinned out.

Assays:
biotinyl-Leu-oxazolone = test: self-aminoacylation, catalytic enhancement (BLO) (fold over background); higher = more active; k-Seq, kA / k0A0; sequences stand for … in GGGAAUGGAUCCACAUCUACGAAUUC…UUCACUGCAGACUUGACGAAGCUG
Summary of the method: (§1)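 Mutagenized RNA pools with a 21-nt variable region (0.43 μM) were reacted with each biotinyl-aminoacyl-oxazolone at 2–1250 μM for 90 minutes at room temperature, in 50 μL HEPES/NaCl/KCl/MgCl2/CaCl2 buffer containing 5% acetonitrile at pH 6.9–7.0. RNA captured on streptavidin was quantified by triplicate qPCR and by Illumina sequencing. The fraction reacted for each sequence was fit to a pseudo-first-order model with bootstrapping, and catalytic enhancement is the median kA divided by the uncatalyzed rate, taken as the low-activity peak of a bimodal Gaussian fit.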

biotinyl-Val-oxazolone = test: self-aminoacylation, catalytic enhancement (BVO) (fold over background); higher = more active; k-Seq, kA / k0A0; sequences stand for … in GGGAAUGGAUCCACAUCUACGAAUUC…UUCACUGCAGACUUGACGAAGCUG
Summary of the method: as §1

biotinyl-Phe-oxazolone = test: self-aminoacylation, catalytic enhancement (BFO) (fold over background); higher = more active; k-Seq, kA / k0A0; sequences stand for … in GGGAAUGGAUCCACAUCUACGAAUUC…UUCACUGCAGACUUGACGAAGCUG
Summary of the method: as §1

biotinyl-Ile-oxazolone = test: self-aminoacylation, catalytic enhancement (BIO) (fold over background); higher = more active; k-Seq, kA / k0A0; sequences stand for … in GGGAAUGGAUCCACAUCUACGAAUUC…UUCACUGCAGACUUGACGAAGCUG
Summary of the method: as §1

biotinyl-Met-oxazolone = test: self-aminoacylation, catalytic enhancement (BMO) (fold over background); higher = more active; k-Seq, kA / k0A0; sequences stand for … in GGGAAUGGAUCCACAUCUACGAAUUC…UUCACUGCAGACUUGACGAAGCUG
Summary of the method: as §1

biotinyl-Trp-oxazolone = test: self-aminoacylation, catalytic enhancement (BWO) (fold over background); higher = more active; k-Seq, kA / k0A0; sequences stand for … in GGGAAUGGAUCCACAUCUACGAAUUC…UUCACUGCAGACUUGACGAAGCUG
Summary of the method: as §1

Sequence | self-aminoacylation (biotinyl-Leu-oxazolone) | self-aminoacylation (biotinyl-Val-oxazolone) | self-aminoacylation (biotinyl-Phe-oxazolone) | self-aminoacylation (biotinyl-Ile-oxazolone) | self-aminoacylation (biotinyl-Met-oxazolone) | self-aminoacylation (biotinyl-Trp-oxazolone)
UCUACCCUGGUCAUCGAGUGA [Fam2.1 aminoacylation ribozyme variant] | 9.36 | 5.79 | 14.6 | 5.18 | 10.4 | 12.6
AAGUCUGCUAAUAGCCGCAAG [Fam3.1 aminoacylation ribozyme variant] | 0.989 | 1.02 | 8.57 | 1.11 | 1.13 | 3.25
CUACCUCAAACAAUCGGUCUA [Fam1A.1 aminoacylation ribozyme variant] | 0.89 | 0.885 | 1.45 | 1.01 | 1.16 | 0.934
CUUCUUCAAUCAAUCGGUCUG [Fam1A.1 aminoacylation ribozyme variant] | 1.21 | 0.956 | 18.9 | 0.975 | 0.986 | 11.3
AAGUUUGCUAAUAGUCUAAAG [Fam3.1 aminoacylation ribozyme variant] | 0.882 | 1.28 | 5.62 | 1.28 | 0.959 | 1.9
AUAACCCUGGUCAUCGAUUGA [Fam2.1 aminoacylation ribozyme variant] | 1.02 | 0.974 | 0.646 | 0.94 | 0.883 | 0.392
AUCACCCCGGUCAUCGAGUGA [Fam2.1 aminoacylation ribozyme variant] | 10.2 | 4.47 | 52.6 | 4.51 | 8.33 | 9.73
AUUACCCUGGUCAUCGAAUUA [Fam2.1 aminoacylation ribozyme variant] | 0.955 | 1.18 | 0.751 | 1.26 | 1.5 | 0.504
CUACUUCAAUCAUUCGGUCUG [Fam1A.1 aminoacylation ribozyme variant] | 0.896 | 0.992 | 0.652 | 1.1 | 0.805 | 1.13
CAAGUUCAAACAAUCGGUCUG [Fam1A.1 aminoacylation ribozyme variant] | 1.02 | 0.969 | 6.99 | 0.983 | 0.954 | 4.9
AUUACCCUUGUCAUAGAGUGA [Fam2.1 aminoacylation ribozyme variant] | 8.53 | 4.59 | 36.6 | 4.36 | 8.7 | 11
AGUCACGUAGGUCAUCGGGUG [Fam2.2 aminoacylation ribozyme variant] | 5.72 | 5.07 | 52.9 | 3.96 | 5.11 | 6.71
CCACACUUCAAGCAAUCCAUC [Fam1B.1 aminoacylation ribozyme variant] | 0.446 | 0.774 | 0.752 | 0.553 | 0.433 | 0.529
AAGUUUGCUUAUACUCGCAAG [Fam3.1 aminoacylation ribozyme variant] | 0.66 | 0.814 | 0.761 | 0.779 | 0.863 | 0.554
CCUCACUUCAAGCAGUCGGUC [Fam1B.1 aminoacylation ribozyme variant] | 0.892 | 0.855 | 1.1 | 0.786 | 0.646 | 0.928
AUUAGCCUUGUCAUCGAGUGA [Fam2.1 aminoacylation ribozyme variant] | 3.97 | 2.76 | 6.72 | 2.85 | 3.73 | 4.07
AUUCACCUAGUUCAUCGUGUG [Fam2.2 aminoacylation ribozyme variant] | 1.25 | 1.11 | 4.05 | 0.937 | 1.2 | 1.1
AUUACCCUGGGCAUCGAGUGA [Fam2.1 aminoacylation ribozyme variant] | 5.1 | 2.75 | 21.4 | 2.57 | 4.85 | 5.82
AAGUUUGCUAAUCGUCGCAUG [Fam3.1 aminoacylation ribozyme variant] | 0.957 | 0.923 | 0.667 | 1.03 | 0.922 | 0.804
CCAAGCUUCAAGCAAUCGGUC [Fam1B.1 aminoacylation ribozyme variant] | 2.5 | 1.3 | 86.5 | 1.35 | 1.51 | 44.9
CUACUUCAAACAAUCGACCUG [Fam1A.1 aminoacylation ribozyme variant] | 0.45 | 0.636 | 1.6 | 0.608 | 0.545 | 0.661

Sequence | self-aminoacylation (biotinyl-Leu-oxazolone) | self-aminoacylation (biotinyl-Val-oxazolone) | self-aminoacylation (biotinyl-Phe-oxazolone) | self-aminoacylation (biotinyl-Ile-oxazolone) | self-aminoacylation (biotinyl-Met-oxazolone) | self-aminoacylation (biotinyl-Trp-oxazolone)
CCACACUUCAACCAAUCGUUC [Fam1B.1 aminoacylation ribozyme variant] | 0.562 | 0.636 | 1.28 | 0.674 | 0.634 | 0.778
AUUACCCUGGUCAUCGAGCGA [Fam2.1 aminoacylation ribozyme variant] | 3.7 | 2.18 | 3.41 | 2.15 | 3.51 | 3.33
AUUCACCUAUGUCGUCGGGUG [Fam2.2 aminoacylation ribozyme variant] | 1.44 | 1.15 | 6.21 | 1.19 | 1.28 | 1.3
CUGACCCUGGUCAUCGAGUGA [Fam2.1 aminoacylation ribozyme variant] | 7.94 | 4.5 | 7.35 | 3.64 | 7.22 | 8.61
AUGUUUGCUAAUAGUGGCAAG [Fam3.1 aminoacylation ribozyme variant] | 0.588 | 0.643 | 1.22 | 0.646 | 0.483 | 0.491
AAUUUUGCUAAUUGUCGCAAG [Fam3.1 aminoacylation ribozyme variant] | 2.13 | 1.73 | 2.61 | 2.45 | 1.92 | 2.21
AUUACCCUAGUCAGCGAGUGA [Fam2.1 aminoacylation ribozyme variant] | 5.18 | 3.38 | 23.4 | 3.38 | 5.1 | 6.79
AUUCACCUAGGUCAUCGGGAA [Fam2.2 aminoacylation ribozyme variant] | 9.17 | 4.14 | 26 | 4.54 | 5.51 | 6.07
AAUACCAUGGUCAUCGAGUGA [Fam2.1 aminoacylation ribozyme variant] | 6.22 | 2.89 | 16.2 | 3.19 | 6.12 | 7.7
AUCCACCUAGGUCAUCGGGAG [Fam2.2 aminoacylation ribozyme variant] | 1.68 | 2.17 | 1.03 | 1.88 | 1.65 | 2.19
AUUAUCCGGGUCAUCGAGUGA [Fam2.1 aminoacylation ribozyme variant] | 8.08 | 4.04 | 45.7 | 4.14 | 8.26 | 8.13
CCACAUUUCAGGCAAUCGGUC [Fam1B.1 aminoacylation ribozyme variant] | 2.2 | 1.93 | 1.92 | 2.2 | 1.58 | 1.59
AAGUUUGCCAAUAGUCGGAAG [Fam3.1 aminoacylation ribozyme variant] | 0.941 | 0.968 | 1.28 | 1.14 | 0.781 | 0.79
ACUCACCUAGGUCUUCGGGUG [Fam2.2 aminoacylation ribozyme variant] | 6.01 | 4.96 | 29.7 | 4.2 | 4.6 | 6.33
AAGUUUGCUAAUAGGCGCGAG [Fam3.1 aminoacylation ribozyme variant] | 0.954 | 0.9 | 1.2 | 1.16 | 0.819 | 1.42
AACUUUGCUAAUAGUCGCAAA [Fam3.1 aminoacylation ribozyme variant] | 3.39 | 2.31 | 13.6 | 2.8 | 3.32 | 2.36
CUACUUCAAACAAUUGUUCUG [Fam1A.1 aminoacylation ribozyme variant] | 0.611 | 0.636 | 0.673 | 0.619 | 0.633 | 0.367
CCACACAUCAAGCCAUCGGUC [Fam1B.1 aminoacylation ribozyme variant] | 1.01 | 1.27 | 1.07 | 1.19 | 1.04 | 0.895
CCGCACUUCAAGCAAUCAGUC [Fam1B.1 aminoacylation ribozyme variant] | 0.943 | 0.859 | 18.8 | 0.854 | 0.798 | 7.12
CCACACUUCAACCUAUCGGUC [Fam1B.1 aminoacylation ribozyme variant] | 0.995 | 1.34 | 1.18 | 1.02 | 0.87 | 0.993
AUUACCCUUGUUAUCGAGUGA [Fam2.1 aminoacylation ribozyme variant] | 14.7 | 6.96 | 116 | 7.09 | 15.9 | 19.6
